Results from US20260176603, “TYPE II CAS PROTEINS AND APPLICATIONS THEREOF” (Alia Therapeutics Srl, published 2026).

T1: BDLP Type II Cas (metagenomic)
T1 chain: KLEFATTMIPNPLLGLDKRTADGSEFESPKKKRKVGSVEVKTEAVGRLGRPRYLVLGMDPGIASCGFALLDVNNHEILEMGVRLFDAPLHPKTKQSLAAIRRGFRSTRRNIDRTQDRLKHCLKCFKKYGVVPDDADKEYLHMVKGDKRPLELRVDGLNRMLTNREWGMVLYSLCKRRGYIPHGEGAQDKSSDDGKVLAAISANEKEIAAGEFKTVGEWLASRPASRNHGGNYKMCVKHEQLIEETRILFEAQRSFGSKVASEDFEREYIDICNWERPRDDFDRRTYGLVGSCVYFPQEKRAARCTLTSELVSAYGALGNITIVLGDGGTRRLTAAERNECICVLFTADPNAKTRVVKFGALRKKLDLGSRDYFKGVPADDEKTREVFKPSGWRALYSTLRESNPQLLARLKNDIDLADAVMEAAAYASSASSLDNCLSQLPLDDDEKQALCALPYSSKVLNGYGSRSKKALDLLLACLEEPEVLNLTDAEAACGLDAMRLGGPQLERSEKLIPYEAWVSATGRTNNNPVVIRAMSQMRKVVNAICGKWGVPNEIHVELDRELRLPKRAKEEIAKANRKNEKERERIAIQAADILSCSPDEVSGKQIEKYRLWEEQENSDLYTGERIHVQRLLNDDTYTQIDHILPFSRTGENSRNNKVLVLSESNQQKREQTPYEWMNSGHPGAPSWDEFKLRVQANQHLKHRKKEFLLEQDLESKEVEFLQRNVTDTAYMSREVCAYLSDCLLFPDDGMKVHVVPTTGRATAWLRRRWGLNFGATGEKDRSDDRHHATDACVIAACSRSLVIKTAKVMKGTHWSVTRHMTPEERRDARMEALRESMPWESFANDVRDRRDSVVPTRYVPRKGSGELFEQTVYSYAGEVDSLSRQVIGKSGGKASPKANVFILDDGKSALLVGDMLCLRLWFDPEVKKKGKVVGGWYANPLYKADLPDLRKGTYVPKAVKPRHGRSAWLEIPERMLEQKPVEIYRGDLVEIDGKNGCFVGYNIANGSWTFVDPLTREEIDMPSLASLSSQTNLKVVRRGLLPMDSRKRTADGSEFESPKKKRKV

T2: EQSC Type II Cas (metagenomic)
T2 chain: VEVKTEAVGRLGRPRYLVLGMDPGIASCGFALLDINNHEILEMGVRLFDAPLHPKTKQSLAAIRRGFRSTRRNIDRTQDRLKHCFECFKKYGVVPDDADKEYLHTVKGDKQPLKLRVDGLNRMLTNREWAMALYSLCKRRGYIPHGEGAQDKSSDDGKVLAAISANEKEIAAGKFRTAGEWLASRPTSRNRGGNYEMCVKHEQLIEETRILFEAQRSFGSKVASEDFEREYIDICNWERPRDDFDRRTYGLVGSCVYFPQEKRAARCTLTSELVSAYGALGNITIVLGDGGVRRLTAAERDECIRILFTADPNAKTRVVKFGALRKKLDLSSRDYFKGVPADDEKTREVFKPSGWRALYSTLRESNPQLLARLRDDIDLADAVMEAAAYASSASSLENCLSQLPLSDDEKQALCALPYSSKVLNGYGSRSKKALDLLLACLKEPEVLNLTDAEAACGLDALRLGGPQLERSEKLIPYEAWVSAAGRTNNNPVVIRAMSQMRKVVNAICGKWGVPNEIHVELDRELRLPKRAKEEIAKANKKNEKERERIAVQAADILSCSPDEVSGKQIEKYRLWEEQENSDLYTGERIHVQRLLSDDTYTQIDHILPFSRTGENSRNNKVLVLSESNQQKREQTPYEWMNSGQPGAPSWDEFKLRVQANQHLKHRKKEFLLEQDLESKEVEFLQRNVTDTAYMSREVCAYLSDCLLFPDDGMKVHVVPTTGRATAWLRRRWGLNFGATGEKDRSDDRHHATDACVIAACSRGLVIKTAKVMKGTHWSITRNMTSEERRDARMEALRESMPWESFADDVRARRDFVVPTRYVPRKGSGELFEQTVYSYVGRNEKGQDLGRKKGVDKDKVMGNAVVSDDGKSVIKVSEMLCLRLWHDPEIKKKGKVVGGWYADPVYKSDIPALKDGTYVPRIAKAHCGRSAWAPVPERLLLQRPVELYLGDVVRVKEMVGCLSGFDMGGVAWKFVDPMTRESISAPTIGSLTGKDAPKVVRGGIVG

B1: gRNA-BDLP-EGFP-g3 ; EGFP target BDLP g3 (ssRNA ; dsDNA)
RNA: GUAGUUGCCGUCGUCCUUGAAGAAGUCUUGAGCUCGGAAACGAGACUCCAGACAAGGGGAGUCUACAACAGUAGGUUCACCCGUAGGGUUACCCCCGCGUCAUCCUCGGAAGGCGCGGGGCGAACUCUUUUUU
DNA 1: CTTGTAGTTGCCGTCGTCCTTGAAGAAGATGGTGCG
DNA 2: CGCACCATCTTCTTCAAGGACGACGGCAACTACAAG
B2: gRNA-BDLP-EGFP-g2 ; EGFP target BDLP g2 (ssRNA ; dsDNA)
RNA: GGGGUAGCGGCUGAAGCACUGCAGUCUUGAGCUCGGAAACGAGACUCCAGACAAGGGGAGUCUACAACAGUAGGUUCACCCGUAGGGUUACCCCCGCGUCAUCCUCGGAAGGCGCGGGGCGAACUCUUUUUU
DNA 1: GTCGGGGTAGCGGCTGAAGCACTGCACGCCGTAGG
DNA 2: CCTACGGCGTGCAGTGCTTCAGCCGCTACCCCGAC
B3: gRNA-BDLP-EGFP-g1 ; EGFP target BDLP g1 (ssRNA ; dsDNA)
RNA: GCCCAUCCUGGUCGAGCUGGACGGGUCUUGAGCUCGGAAACGAGACUCCAGACAAGGGGAGUCUACAACAGUAGGUUCACCCGUAGGGUUACCCCCGCGUCAUCCUCGGAAGGCGCGGGGCGAACUCUUUUUU
DNA 1: GGTGCCCATCCTGGTCGAGCTGGACGGCGACGTAAA
DNA 2: TTTACGTCGCCGTCCAGCTCGACCAGGATGGGCACC
B4: gRNA-EQSC-EGFP-g3 ; EGFP target EQSC g3 (ssRNA ; dsDNA)
RNA: GCACGACUUCUUCAAGUCCGCCAGUCUUGAGCUCGGAAACGAGACUCCAGACAAGGGGAACCUACAACGGUAGGUUCACCCGUAGGGUUACCCCCGCGUCAUCUUCGGAAGGCGCGGGGCGAACUCUUUUUU
DNA 1: GCAGCACGACTTCTTCAAGTCCGCCATGCCCGAAGGC
DNA 2: GCCTTCGGGCATGGCGGACTTGAAGAAGTCGTGCTGC
B5: gRNA-EQSC-EGFP-g1 ; EGFP target EQSC g1 (ssRNA ; dsDNA)
RNA: GCCCAUCCUGGUCGAGCUGGACGGUCUUGAGCUCGGAAACGAGACUCCAGACAAGGGGAACCUACAACGGUAGGUUCACCCGUAGGGUUACCCCCGCGUCAUCUUCGGAAGGCGCGGGGCGAACUCUUUUUU
DNA 1: GGTGCCCATCCTGGTCGAGCTGGACGGCGACGTAAAC
DNA 2: GTTTACGTCGCCGTCCAGCTCGACCAGGATGGGCACC
B6: gRNA-EQSC-EGFP-g2 ; EGFP target EQSC g2 (ssRNA ; dsDNA)
RNA: UGCAGAUGAACUUCAGGGUCAGCGUCUUGAGCUCGGAAACGAGACUCCAGACAAGGGGAACCUACAACGGUAGGUUCACCCGUAGGGUUACCCCCGCGUCAUCUUCGGAAGGCGCGGGGCGAACUCUUUUUU
DNA 1: TGGTGCAGATGAACTTCAGGGTCAGCTTGCCGTAGGT
DNA 2: ACCTACGGCAAGCTGACCCTGAAGTTCATCTGCACCA

Biological target: T1, BDLP Type II Cas
Assay: cell_activity; PAM NNNNGT; U2OS-EGFP
Conditions: tags: N-terminal SV5 tag and NLS, C-terminal NLS

activity, > 90 % EGFP KO:
B1
B2
B3

Biological target: T2, EQSC Type II Cas
Assay: cell_activity; PAM NNNNCNNA; U2OS-EGFP
Conditions: tags: N-terminal SV5 tag and NLS, C-terminal NLS

activity, > 90 % EGFP KO:
B4
B5
B6
